Results published in patent US20110027269A1.
The star is where a group is joined. Biotin = O=C1N[C@H]2[C@H](CS[C@H]2CCCCC(=O)*)N1

Biological target: 14-3-3 proteins present within the KLCCM
Assay: cell-based or functional assay

Work on Biotin-PHCVPRDLSWLDLEANMCLP-OH (cysteine pairing not given here) [biotinylated R18] yielded an MMP-1 expression in dermal fibroblasts treated with KLCCM (western blot, MMP-1/β-actin ratio) of 68.8 % reduction.
